For the assay, the target named is polyclonal mouse anti-TSHR antibodies contained in sera from Ad-TSHR-immunized mice. The assay can be described thus: competition ELISA: sera pre-incubated with peptide 19, binding of polyclonal anti-TSHR antibodies to coated TSHR-Fc. (In general: ELISA stands for enzyme-linked immunosorbent assay.)

Bridge positions count the residues as written; N and C are the ends. Ends that are not written are not given here.

For CHQEEDFRVTC (disulfide 1-11) [cyclic peptide 19], the IC50 stood at 0.02 µM.

What is called IC50 is the concentration needed to halve the response being measured. Low readings indicate inhibition by little substance, high ones a need for much substance.
